Experimental data taken from patent US20190062389A1.

Tests used:
[1] = biological target: HLA-A*24:02 molecule (product of HLA-A*24:02 gene) on C1R-A24 cells (human); assay: flow cytometry, acid-stripped C1R-A24 cells with added b2m, peptide dilution series, 17A12 staining
[2] = biological target: HLA-A*02:01 molecule (product of HLA-A*02:01 gene) on T2 cells (human); assay: flow cytometry, T2 cells with added b2m, peptide dilution series, BB7.2 staining
[3] = biological target: HLA-A*02:06 molecule (product of HLA-A*02:06 gene) on RA2.6 cells (human); assay: flow cytometry, RA2.6 cells, peptide dilution series, BB7.2 staining

B1: GPC3-derived peptide … (SEQ ID NO: 5) (peptide)
peptide: SLTPQAFEF
modifications: not checked
B1 was tested, and the Binding Experiment Data (log Kd) (log Kd (concentration unit not given)) [1] was -7.11, the Binding Experiment Data (log Kd) (log Kd (concentration unit not given)) [2] was -4.93 and the Binding Experiment Data (log Kd) (log Kd (concentration unit not given)) [3] was -4.52.
